The source of these data is patent US12692310B2, “ASIC1 channel antagonist antibody” (ShanghaiTech University, priority 2019, dated 2026).

The experiment concerns the target T1, hASIC1a-eYFP (Homo sapiens, UniProt P78348).
T1 sequence (P78348 1-528): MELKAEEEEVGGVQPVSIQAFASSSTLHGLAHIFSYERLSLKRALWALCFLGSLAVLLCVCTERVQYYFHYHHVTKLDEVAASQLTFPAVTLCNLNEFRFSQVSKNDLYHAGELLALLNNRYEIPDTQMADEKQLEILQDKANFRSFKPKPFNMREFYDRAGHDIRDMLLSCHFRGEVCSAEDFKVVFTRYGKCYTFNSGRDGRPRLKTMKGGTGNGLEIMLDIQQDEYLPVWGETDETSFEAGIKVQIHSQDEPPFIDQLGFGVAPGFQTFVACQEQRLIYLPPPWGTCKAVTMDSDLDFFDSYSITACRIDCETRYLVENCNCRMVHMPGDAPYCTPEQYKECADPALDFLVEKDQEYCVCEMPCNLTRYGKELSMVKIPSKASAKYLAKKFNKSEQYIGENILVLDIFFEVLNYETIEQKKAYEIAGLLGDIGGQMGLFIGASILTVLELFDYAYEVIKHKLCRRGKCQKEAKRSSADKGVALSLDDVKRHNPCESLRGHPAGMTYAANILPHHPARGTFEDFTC
Nature of the experiment: Western blot and immunoprecipitation of 6H7 cell lysate. It is filed as binding. Details: expressed in transfected cells. An excerpt:
To characterize the interaction between ASC06-IgG1 and hASIC1a, the 6H7 stable line expressing the hASIC1a-eYFP fusion protein was used in a Western blot analysis. […] In contrast, both the commercial goat polyclonal anti-ASIC1 antibody and the anti-eYFP antibody were able to detect the hASIC1a-eYFP protein in the 6H7 lysate at molecular mass around 100 kDa (FIG. 13A and data not shown).
ASC06-IgG1 was used to pull down native hASIC1a-YFP in cell lysate followed by anti-eYFP Western blot for hASIC1a-YFP detection.

B1: ASC06-IgG1: ASC06 antibody converted into a full length IgG1 form (antibody, V domains shown)
VH: QVQLQQSGGGLVQPGGSLRLSCAASGFTFSSYAMSWVRQAPGKGLEWVSAISGSGGSTYYADSVKGRFTISRDNSKNTLYLQMNSLRAEDTAVYYCAKDSFYGYSKGDWGQGTLVTVSS
VL: QSALTQPASVSGSPGQSITISCTGTSSDVGAYNYVSWYQQQPGKAPKLMIYGVSNRPSGVSNRFSGSKSGNAASLTISGLQAEDEADYYCSSYTSSSTYVFGTGTKLTVLG
For B1, the “recognition of hASIC1a in cell lysate in Western blot” value (denatured lysate of 6H7 cells) is reported as “could not recognize”. The “pull down of native hASIC1a-YFP, anti-eYFP Western blot” value (immunoprecipitation) is “recognized hASIC1a in a conformation-dependent manner”.
